These results are taken from US6869925 (Amgen, dated 2005).

For data set [1], the target named is SLPI binding sites on U937 cells (human monocyte cell line; intact cells, PMA-induced cells or plasma membranes) (human). Kind of data set: competition with 125I-SLPI, U937 plasma membranes, Kd by Cheng-Prusoff.
The target is the same in data set [2]. Put plainly: competition with 125I-SLPI, U937 plasma membranes, competitor at 0 nM.
In data set [3] the target is SLPI binding sites on HuT78 cells (human T cell line) (human). Put plainly: competition with 125I-SLPI, intact HuT78 cells, competitor at 2750 nM.
In data set [4] the target is SLPI binding sites on U937 cells (human monocyte cell line; intact cells, PMA-induced cells or plasma membranes) (human). Kind of data set: competition with 125I-SLPI, intact U937 cells, competitor at 0.024 nM.
For data set [5] the target is unchanged. Kind of data set: competition with 125I-SLPI, U937 plasma membranes, competitor at 8.20 nM.
For data set [6] the target is unchanged. Kind of data set: competition with 125I-SLPI, intact U937 cells, competitor at 26 nM.
For data set [7] the target is unchanged. Kind of data set: competition with 125I-SLPI, intact U937 cells, competitor at 2750 nM.
Data set [8] shares this target. Put plainly: competition with 125I-SLPI, intact U937 cells, competitor at 270 nM.
The target is the same in data set [9]. Put plainly: competition with 125I-SLPI, intact U937 cells, competitor at 0.80 nM.
Data set [10] deals with SLPI binding sites on HuT78 cells (human T cell line) (human). Put plainly: competition with 125I-SLPI, intact HuT78 cells, competitor at 0 nM.
For data set [11] the target is unchanged. Kind of data set: competition with 125I-SLPI, intact HuT78 cells, competitor at 2.6 nM.
Data set [12] has as its target SLPI binding sites on U937 cells (human monocyte cell line; intact cells, PMA-induced cells or plasma membranes) (human). Kind of data set: competition with 125I-SLPI, U937 plasma membranes, competitor at 83.9 nM.
Data set [13] shares this target. Put plainly: competition with 125I-SLPI, U937 plasma membranes, competitor at 2750 nM.
Data set [14] has the same target. Kind of data set: competition with 125I-SLPI, intact U937 cells, competitor at 8.2 nM.
The target is the same in data set [15]. Put plainly: competition with 125I-SLPI, U937 plasma membranes, competitor at 2.56 nM.
Data set [16] has as its target SLPI binding sites on HuT78 cells (human T cell line) (human). Kind of data set: competition with 125I-SLPI, intact HuT78 cells, competitor at 8.2 nM.
The target of data set [17] is SLPI binding sites on U937 cells (human monocyte cell line; intact cells, PMA-induced cells or plasma membranes) (human). Put plainly: competition with 125I-SLPI, intact U937 cells, competitor at 0.25 nM.
For data set [18] the target is unchanged. Put plainly: competition with 125I-SLPI, intact U937 cells, Kd by Cheng-Prusoff.
Data set [19] addresses SLPI binding sites on HuT78 cells (human T cell line) (human). Put plainly: competition with 125I-SLPI, intact HuT78 cells, competitor at 84 nM.
Data set [20] has the same target. Kind of data set: competition with 125I-SLPI, intact HuT78 cells, Kd by Cheng-Prusoff.
The target of data set [21] is SLPI binding sites on U937 cells (human monocyte cell line; intact cells, PMA-induced cells or plasma membranes) (human). Kind of data set: competition with 125I-SLPI, U937 plasma membranes, competitor at 268 nM.
Data set [22] shares this target. Put plainly: competition with 125I-SLPI, intact U937 cells, competitor at 84 nM.
Data set [23] shares this target. Kind of data set: competition with 125I-SLPI, U937 plasma membranes, competitor at 0.800 nM.
Data set [24] has the same target. Kind of data set: competition with 125I-SLPI, intact U937 cells, competitor at 0 nM.
The target in data set [25] is SLPI binding sites on HuT78 cells (human T cell line) (human). Kind of data set: competition with 125I-SLPI, intact HuT78 cells, competitor at 0.80 nM.
Data set [26] addresses SLPI binding sites on U937 cells (human monocyte cell line; intact cells, PMA-induced cells or plasma membranes) (human). Put plainly: competition with 125I-SLPI, intact U937 cells, competitor at 860 nM.
The target is the same in data set [27]. Put plainly: competition with 125I-SLPI, intact U937 cells, competitor at 0.078 nM.
Data set [28] has the same target. Put plainly: competition with 125I-SLPI, intact U937 cells, competitor at 2.6 nM.
The target of data set [29] is HIV-1 envelope protein gp120.

HIV-1 envelope protein gp120: in data set [1], the Kd turned out to be 400 nM. This lies in the sub-micromolar range.

Turning to “SLPI mutein Gly 20 (from UniProt P03973 26-132)”, the CPM *SLPI BOUND in [2] worked out at 18700 cpm; in data set [5] it was 7400 cpm; in data set [12] it was 2490 cpm; in data set [13] it was 1500 cpm; in data set [15], 11400 cpm; in data set [21], 1620 cpm. This molecule had a CPM *SLPI BOUND in data set [23] of 14900 cpm. Also, the % *SLPI BOUND in data set [3] turned out to be 7%; in data set [4], 110%; in data set [6] it was 28%; in [7] it was 5%; in data set [8], 6%; in data set [9] it was 91%. Moreover, the % *SLPI BOUND in data set [10] stood at 100%; in data set [11], 91%; in data set [14], 49%; in data set [16], 103%; in data set [17], 110%; in data set [19], 50%. Besides, the % *SLPI BOUND in data set [22] is 11%; in [24], 130%; in data set [25] it was 109%; in data set [26], 5%; in data set [27] it was 117%. Moreover, the Kd in data set [1] is 5 nM; in data set [18] it was 3.5 nM; in [20] it was 13 nM.

In the case of “SLPI mutein Lys 72 (from UniProt P03973 26-132)”, the CPM *SLPI BOUND in data set [2] was determined as 18700 cpm; in data set [5], 7620 cpm; in [12] it was 3500 cpm; in data set [13], 5010 cpm; in [15] it was 12200 cpm; in data set [21], 3240 cpm. Moreover, the CPM *SLPI BOUND in [23] worked out at 14200 cpm. The % *SLPI BOUND amounted to 34% in [3]; 116% in data set [4]; 21% in [6]; 4% in data set [7]; 6% in [8]; 86% in data set [9]. In addition, the % *SLPI BOUND in data set [28] amounted to 71%; in [10], 100%; in data set [11], 118%; in [14], 39%; in data set [16] it was 116%; in [17], 103%. The % *SLPI BOUND in data set [19] was 86%; in data set [22], 10%; in [24] it was 117%; in data set [25], 105%; in [26] it was 5%; in data set [27] it was 113%. The Kd in data set [1] was 5 nM; in data set [18], 2.5 nM; in data set [20], 200 nM.

For the molecule “SLPI mutein Val 72 (from UniProt P03973 26-132)”, the CPM *SLPI BOUND in [2] amounted to 18700 cpm; in [5], 9240 cpm; in data set [12], 3380 cpm; in data set [13], 923 cpm; in [15] it was 11600 cpm; in data set [21], 1740 cpm. Further, the CPM *SLPI BOUND in data set [23] came to 14000 cpm. The % *SLPI BOUND in data set [3] worked out at 14%; in data set [7], 8%; in [9], 90%; in data set [28], 80%; in [10] it was 100%; in data set [11], 96%. In addition, the % *SLPI BOUND was found to be 78% in [14]; 81% in [16]; 43% in [19]; 48% in data set [22]; 95% in [24]; 93% in data set [25]. The figures for the Kd in [1], in data set [18] and in data set [20] were 19 nM, 30 nM and 9 nM, respectively.

In data set [1], “alpha-1 protease inhibitor (from UniProt P01009 25-418)” showed a Kd of 1000 nM.

“bFGF (from UniProt P09038 143-288) (ligand)”: the CPM *SLPI BOUND in data set [2] turned out to be 18700 cpm; in data set [5] it was 14500 cpm; in data set [12] it was 15000 cpm; in [13], 14700 cpm; in data set [15], 13500 cpm; in [21] it was 14400 cpm. In data set [23], the CPM *SLPI BOUND came to 14000 cpm.

lysozyme (enzyme): the CPM *SLPI BOUND in data set [2] turned out to be 18700 cpm; in data set [5] it was 15000 cpm; in data set [12], 15500 cpm; in [13], 15900 cpm; in [15] it was 14700 cpm; in data set [21] it was 14900 cpm. Moreover, the CPM *SLPI BOUND in data set [23] amounted to 15200 cpm.

B1: cathepsin G (protein)
chain: IIGGRESRPHSRPYMAYLQIQSPAGQSRCGGFLVREDFVLTAAHCWGSNINVTLGAHNIQRRENTQQHITARRAIRHPQYNQRTIQNDIMLLQLSRRVRRNRNVNPVALPRAQEGLRPGTLCTVAGWGRVSMRRGTDTLREVQLRVQRDRQCLRIFGSYDPRRQICVGDRRERKAAFKGDSGGPLLCNNVAHGIVSYGKSSGVPPEVFTRVSSFLPWIRTTMRS
Consider B1, for which, in [29], the “proteolytic cleavage of gp120 (Western blot)” value is “gp120 (400 nM) was also incubated at 37° for 30 min, with 10 nM cathepsin G and yielded different bands”.

B2: human neutrophil elastase (protein)
chain: IVGGRRARPHAWPFMVSLQLRGGHFCGATLIAPNFVMSAAHCVANVNVRAVRVVLGAHNLSRREPTRQVFAVQRIFENGYDPVNLLNDIVILQLNGSATINANVQVAQLPAQGRRLGNGVQCLAMGWGLLGRNRGIASVLQELNVTVVTSLCRRSNVCTLVRGRQAGVCFGDSGSPLVCNGLIHGIASFVRGGCASGLYPDAFAPVAQFVNWIDSIIQ
For the molecule B2, in [29], the “proteolytic cleavage of gp120 (Western blot, reducing SDS-PAGE)” value is on record as “Incubation at 37° for 30 min, with 10 nM HNE yielded primarily 2 bands on Western blot”.

By Kd is commonly meant the concentration at which binding is half-saturated.
